{"source": "paper PMC5624926", "about": "(Nature Communications, 2017)", "conditions_in_all_cases": "both partners purified", "key": {"[1]": {"molecular_target": "T1, CD22_(20–687) (human, UniProt P20273, N-linked glycans; glycoform not stated)", "T1 construct": "also called full-length CD22 ECD; not shown: His6, C-terminal, kept", "assay": "negative-stain electron microscopy; CD22_(20–687) in complex with epratuzumab Fab, 2% uranyl formate stain; 2D class averages and ab initio 3D envelope"}, "[2]": {"molecular_target": "T2, CD22_(20–687)F N231Q (human, UniProt P20273, N231Q, N-linked glycans with mature carbohydrates (HEK293F); glycosylation site N231 knocked out)", "T2 construct": "also called CD22 N231Q mutant; source: HEK293F, transiently transfected, secreted, purified (Ni-NTA, Superdex 200); not shown: His6, C-terminal, kept", "assay": "BLI; Octet RED96; CD22_(20–687) forms loaded on Ni-NTA biosensors; Fab in solution 500 to 62.5 nM; 1x PBS pH 7.4, 0.002% Tween, 0.01% BSA; 1:1 fit; triplicate"}, "[3]": {"molecular_target": "T3, CD22_(20–687)S (human, UniProt P20273, N-linked glycans of high mannose type (HEK293S))", "T3 construct": "differs in the glycoform; also called full-length CD22 ECD made in HEK293S (HEK293 Gnt I−/−); source: HEK293 Gnt I−/− (HEK293S), transiently transfected, secreted, purified (Ni-NTA, Superdex 200); not shown: His6, C-terminal, kept", "assay": "BLI; Octet RED96; CD22_(20–687) forms loaded on Ni-NTA biosensors; Fab in solution 500 to 62.5 nM; 1x PBS pH 7.4, 0.002% Tween, 0.01% BSA; 1:1 fit; triplicate"}}, "data": [{"binder": "epratuzumab Fab (Fab, V domains shown, heavy chain of the epratuzumab Fab, gene synthesized by GeneArt; PDB 5VL3, complex with CD22; light chain of the epratuzumab Fab, gene synthesized by GeneArt; Therapeutic anti-CD22 antibody, used as Fab; purified on KappaSelect, so the light chain should be kappa (surmised); source: HEK293F, heavy and light chain co-transfected, purified (KappaSelect, MonoS, Superdex 200)) VH: QVQLVQSGAEVKKPGSSVKVSCKASGYTFTSYWLHWVRQAPGQGLEWIGYINPRNDYTEYNQNFKDKATITADESTNTAYMELSSLRSEDTAFYFCARRDITTFYWGQGTTVTVSS VL: DIQLTQSPSSLSASVGDRVTMSCKSSQSVLYSANHKNYLAWYQQKPGKAPKLLIYWASTRESGVPSRFSGSGSGTDFTLTISSLQPEDIATYYCHQYLSSWTFGGGTKLEIK", "values": [{"measurement": "binding result", "setting": "[1]", "result": "binds"}, {"measurement": "fold improvement in affinity against WT CD22", "setting": "[2]", "result": 6, "unit": "fold"}, {"measurement": "fold increase in on-rate against WT CD22", "setting": "[2]", "result": 25, "unit": "fold"}, {"measurement": "binding result", "setting": "[3]", "result": "binds"}]}]}
